Legend:
Test in all cases: holdup assay
Parameters in all cases: key: below the threshold = too weak to quantify, mostly under pKd 3.1 to 4
APBA2_2, Q99767 = target: T1, APBA2_2, Q99767
T1 sequence (Q99767 654-744, limits assumed, looked up): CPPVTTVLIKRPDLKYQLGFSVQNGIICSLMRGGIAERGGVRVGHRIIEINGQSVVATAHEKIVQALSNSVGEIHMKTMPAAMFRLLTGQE

APBA3_1, O96018 = target: T2, APBA3_1, O96018
T2 sequence (O96018 389-490, limits assumed, looked up): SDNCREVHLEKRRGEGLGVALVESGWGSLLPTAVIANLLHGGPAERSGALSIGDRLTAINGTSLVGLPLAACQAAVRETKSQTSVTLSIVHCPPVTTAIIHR

CARD11, Q9BXL7 = target: T3, CARD11, Q9BXL7
T3 sequence (Q9BXL7 662-765, limits assumed, looked up): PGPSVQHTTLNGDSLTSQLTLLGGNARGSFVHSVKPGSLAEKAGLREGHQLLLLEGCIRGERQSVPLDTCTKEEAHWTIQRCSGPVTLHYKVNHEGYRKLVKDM

DLG1_1, Q12959 = target: DLG1_1, Q12959
DLG3_1, Q92796 = target: T4, DLG3_1, Q92796
T4 sequence (Q92796 125-227, limits assumed, looked up): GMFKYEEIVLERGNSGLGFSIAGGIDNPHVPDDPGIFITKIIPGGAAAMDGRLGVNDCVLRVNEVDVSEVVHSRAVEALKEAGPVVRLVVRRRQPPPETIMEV

DLG5_1, Q8TDM6 = target: DLG5_1, Q8TDM6
Sequence of DLG5_1, Q8TDM6 (Q8TDM6 617-713): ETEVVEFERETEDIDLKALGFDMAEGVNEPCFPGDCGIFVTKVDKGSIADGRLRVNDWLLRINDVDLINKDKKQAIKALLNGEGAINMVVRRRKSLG

DVL3, Q92997 = target: T5, DVL3, Q92997
T5 sequence (Q92997 244-331, limits assumed, looked up): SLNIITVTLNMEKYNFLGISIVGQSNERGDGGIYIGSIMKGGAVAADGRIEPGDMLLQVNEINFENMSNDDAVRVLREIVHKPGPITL

GRID2IP_2, A4D2P6 = target: GRID2IP_2, A4D2P6
Sequence of GRID2IP_2, A4D2P6 (A4D2P6 272-370): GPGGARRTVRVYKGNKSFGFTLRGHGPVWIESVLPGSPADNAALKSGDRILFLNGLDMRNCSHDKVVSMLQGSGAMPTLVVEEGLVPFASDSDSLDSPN

GRIP1_5, Q9Y3R0 = target: T6, GRIP1_5, Q9Y3R0
T6 sequence (Q9Y3R0 568-668, limits assumed, looked up): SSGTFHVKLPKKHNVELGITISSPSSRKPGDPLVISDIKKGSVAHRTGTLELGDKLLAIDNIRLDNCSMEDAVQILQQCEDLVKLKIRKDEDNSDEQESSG

GRIP2_4, Q9C0E4 = target: GRIP2_4, Q9C0E4
Sequence of GRIP2_4, Q9C0E4 (Q9C0E4 446-548): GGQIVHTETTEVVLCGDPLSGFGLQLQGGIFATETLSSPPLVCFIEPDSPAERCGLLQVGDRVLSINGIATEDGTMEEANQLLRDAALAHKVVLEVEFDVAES

HTRA1, Q92743 = target: HTRA1, Q92743
Sequence of HTRA1, Q92743 (Q92743 360-477): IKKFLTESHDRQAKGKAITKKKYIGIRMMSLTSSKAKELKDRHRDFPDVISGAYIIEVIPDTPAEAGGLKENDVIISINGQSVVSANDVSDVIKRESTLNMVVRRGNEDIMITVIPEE

Inadl_4, Q8NI35 = target: Inadl_4, Q8NI35
Sequence of Inadl_4, Q8NI35 (Q8NI35 547-651): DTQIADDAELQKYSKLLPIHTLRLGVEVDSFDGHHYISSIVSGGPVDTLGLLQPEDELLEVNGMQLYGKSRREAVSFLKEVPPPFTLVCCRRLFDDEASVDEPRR

Inadl_6, Q8NI35 = target: Inadl_6, Q8NI35
Sequence of Inadl_6, Q8NI35 (Q8NI35 1058-1167): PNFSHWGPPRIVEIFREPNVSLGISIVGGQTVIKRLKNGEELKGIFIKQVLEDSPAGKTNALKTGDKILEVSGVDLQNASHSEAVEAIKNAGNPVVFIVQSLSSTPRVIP

MAGI2_5, Q86UL8 = target: MAGI2_5, Q86UL8
Sequence of MAGI2_5, Q86UL8 (Q86UL8 915-1017): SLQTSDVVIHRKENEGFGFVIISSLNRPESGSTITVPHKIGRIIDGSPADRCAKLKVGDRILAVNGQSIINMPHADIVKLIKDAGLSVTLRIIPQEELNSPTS

MAGI2_6, Q86UL8 = target: MAGI2_6, Q86UL8
Sequence of MAGI2_6, Q86UL8 (Q86UL8 1141-1229): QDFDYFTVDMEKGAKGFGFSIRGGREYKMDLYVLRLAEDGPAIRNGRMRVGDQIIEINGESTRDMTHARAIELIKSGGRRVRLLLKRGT

MAST1, Q9Y2H9 = target: MAST1, Q9Y2H9
Sequence of MAST1, Q9Y2H9 (Q9Y2H9 962-1065): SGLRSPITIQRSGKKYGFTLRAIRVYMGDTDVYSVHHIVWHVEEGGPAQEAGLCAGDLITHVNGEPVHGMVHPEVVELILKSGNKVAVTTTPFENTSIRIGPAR

PDLIM1, O00151 = target: PDLIM1, O00151
Sequence of PDLIM1, O00151 (O00151 1-87): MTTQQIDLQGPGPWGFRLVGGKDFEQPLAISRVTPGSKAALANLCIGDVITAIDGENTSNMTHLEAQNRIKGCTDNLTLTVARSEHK

PDZD7_3, Q9H5P4 = target: T7, PDZD7_3, Q9H5P4
T7 sequence (Q9H5P4 857-944, limits assumed, looked up): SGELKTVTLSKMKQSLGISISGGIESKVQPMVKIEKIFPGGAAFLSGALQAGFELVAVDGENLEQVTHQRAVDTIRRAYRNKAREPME

SCRIB_2, Q14160 = target: SCRIB_2, Q14160
Sequence of SCRIB_2, Q14160 (Q14160 857-960): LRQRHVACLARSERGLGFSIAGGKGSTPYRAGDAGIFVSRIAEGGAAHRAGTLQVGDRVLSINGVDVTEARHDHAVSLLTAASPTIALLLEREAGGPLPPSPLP

SHANK1, Q9Y566 = target: T8, SHANK1, Q9Y566
T8 sequence (Q9Y566 658-767, limits assumed, looked up): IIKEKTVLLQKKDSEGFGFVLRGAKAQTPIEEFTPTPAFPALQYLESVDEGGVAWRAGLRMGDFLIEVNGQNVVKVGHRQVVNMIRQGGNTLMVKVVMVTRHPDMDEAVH

SIPA1L2, Q9P2F8 = target: T9, SIPA1L2, Q9P2F8
T9 sequence (Q9P2F8 945-1036, limits assumed, looked up): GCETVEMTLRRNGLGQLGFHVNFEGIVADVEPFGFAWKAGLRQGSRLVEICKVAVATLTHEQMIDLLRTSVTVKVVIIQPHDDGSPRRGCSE

SNTA1, Q13424 = target: T10, SNTA1, Q13424
T10 sequence (Q13424 82-180, limits assumed, looked up): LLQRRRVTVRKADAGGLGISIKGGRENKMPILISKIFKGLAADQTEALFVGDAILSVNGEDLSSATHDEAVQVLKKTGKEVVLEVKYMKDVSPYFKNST

SNTB1, Q13884 = target: T11, SNTB1, Q13884
T11 sequence (Q13884 107-205, limits assumed, looked up): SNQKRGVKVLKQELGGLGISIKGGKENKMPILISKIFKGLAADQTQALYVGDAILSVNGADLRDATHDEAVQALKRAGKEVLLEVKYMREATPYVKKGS

SYNJ2BP, P57105 = target: T12, SYNJ2BP, P57105
T12 sequence (P57105 8-110, limits assumed, looked up): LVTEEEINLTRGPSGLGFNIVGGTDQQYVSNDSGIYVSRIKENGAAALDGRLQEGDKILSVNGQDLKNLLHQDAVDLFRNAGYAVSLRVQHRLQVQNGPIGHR

TJP3_3, O95049 = target: T13, TJP3_3, O95049
T13 sequence (O95049 375-456, limits assumed, looked up): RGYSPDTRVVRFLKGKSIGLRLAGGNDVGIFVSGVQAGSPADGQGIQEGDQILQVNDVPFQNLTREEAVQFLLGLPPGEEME

[1] = plain residues with an end cap or a label only (N-terminal biotin on a linker: ado-ado)
[2] = modified: phospho on T at position -2 from the C-terminal residue

Binder: VYPNAKVELV [PDLIM4_iso2, P50479;P50479-1]
- pKd (APBA2_2, Q99767; [1]): below the threshold
- pKd (APBA3_1, O96018; [1]): below the threshold
- pKd (CARD11, Q9BXL7; [1]): below the threshold
- pKd (DLG1_1, Q12959; [1]): below the threshold
- pKd (DLG3_1, Q92796; [1]): below the threshold
- pKd (DLG5_1, Q8TDM6; [1]): below the threshold
- pKd (DVL3, Q92997; [1]): below the threshold
- pKd (GRID2IP_2, A4D2P6; [1]): below the threshold
- pKd (GRIP1_5, Q9Y3R0; [1]): below the threshold
- pKd (GRIP2_4, Q9C0E4; [1]): below the threshold
- pKd (HTRA1, Q92743; [1]): 4.62
- pKd (Inadl_4, Q8NI35; [1]): below the threshold
- pKd (Inadl_6, Q8NI35; [1]): below the threshold
- pKd (MAGI2_5, Q86UL8; [1]): below the threshold
- pKd (MAGI2_6, Q86UL8; [1]): below the threshold
- pKd (MAST1, Q9Y2H9; [1]): below the threshold
- pKd (PDLIM1, O00151; [1]): below the threshold
- pKd (PDZD7_3, Q9H5P4; [1]): 3.99
- pKd (SCRIB_2, Q14160; [1]): below the threshold
- pKd (SHANK1, Q9Y566; [1]): below the threshold
- pKd (SIPA1L2, Q9P2F8; [1]): below the threshold
- pKd (SNTA1, Q13424; [1]): below the threshold
- pKd (SNTB1, Q13884; [1]): below the threshold
- pKd (SYNJ2BP, P57105; [1]): below the threshold
- pKd (TJP3_3, O95049; [1]): below the threshold

Binder: PRISRSQSEL [CCDC134, Q9H6E4]
- pKd (APBA2_2, Q99767; [1]): below the threshold
- pKd (APBA3_1, O96018; [1]): below the threshold
- pKd (CARD11, Q9BXL7; [1]): below the threshold
- pKd (DLG1_1, Q12959; [1]): below the threshold
- pKd (DLG3_1, Q92796; [1]): below the threshold
- pKd (DLG5_1, Q8TDM6; [1]): below the threshold
- pKd (DVL3, Q92997; [1]): below the threshold
- pKd (GRID2IP_2, A4D2P6; [1]): 3.61
- pKd (GRIP1_5, Q9Y3R0; [1]): below the threshold
- pKd (GRIP2_4, Q9C0E4; [1]): below the threshold
- pKd (HTRA1, Q92743; [1]): below the threshold
- pKd (Inadl_4, Q8NI35; [1]): below the threshold
- pKd (Inadl_6, Q8NI35; [1]): below the threshold
- pKd (MAGI2_5, Q86UL8; [1]): below the threshold
- pKd (MAGI2_6, Q86UL8; [1]): below the threshold
- pKd (MAST1, Q9Y2H9; [1]): 4.74
- pKd (PDLIM1, O00151; [1]): below the threshold
- pKd (PDZD7_3, Q9H5P4; [1]): below the threshold
- pKd (SCRIB_2, Q14160; [1]): below the threshold
- pKd (SHANK1, Q9Y566; [1]): below the threshold
- pKd (SIPA1L2, Q9P2F8; [1]): below the threshold
- pKd (SNTA1, Q13424; [1]): below the threshold
- pKd (SNTB1, Q13884; [1]): below the threshold
- pKd (SYNJ2BP, P57105; [1]): 4.09
- pKd (TJP3_3, O95049; [1]): below the threshold

Binder: QGLAERISVL [PRKD2, Q9BZL6]
- pKd (APBA2_2, Q99767; [1]): below the threshold
- pKd (APBA3_1, O96018; [1]): below the threshold
- pKd (CARD11, Q9BXL7; [1]): below the threshold
- pKd (DLG1_1, Q12959; [1]): below the threshold
- pKd (DLG3_1, Q92796; [1]): below the threshold
- pKd (DLG5_1, Q8TDM6; [1]): below the threshold
- pKd (DVL3, Q92997; [1]): below the threshold
- pKd (GRID2IP_2, A4D2P6; [1]): 4.81
- pKd (GRIP1_5, Q9Y3R0; [1]): below the threshold
- pKd (GRIP2_4, Q9C0E4; [1]): below the threshold
- pKd (HTRA1, Q92743; [1]): 4.77
- pKd (Inadl_4, Q8NI35; [1]): below the threshold
- pKd (Inadl_6, Q8NI35; [1]): 4.02
- pKd (MAGI2_5, Q86UL8; [1]): 4.13
- pKd (MAGI2_6, Q86UL8; [1]): 3.98
- pKd (MAST1, Q9Y2H9; [1]): 4.52
- pKd (PDLIM1, O00151; [1]): below the threshold
- pKd (PDZD7_3, Q9H5P4; [1]): 5.21
- pKd (SCRIB_2, Q14160; [1]): below the threshold
- pKd (SHANK1, Q9Y566; [1]): 4.23
- pKd (SIPA1L2, Q9P2F8; [1]): below the threshold
- pKd (SNTA1, Q13424; [1]): 4.71
- pKd (SNTB1, Q13884; [1]): 4.92
- pKd (SYNJ2BP, P57105; [1]): below the threshold
- pKd (TJP3_3, O95049; [1]): below the threshold

Binder: RLQRRRETQV [HPV18-E6_-2P, P06463]
- pKd (APBA2_2, Q99767; [2]): below the threshold
- pKd (APBA3_1, O96018; [2]): below the threshold
- pKd (CARD11, Q9BXL7; [2]): below the threshold
- pKd (DLG1_1, Q12959; [2]): below the threshold
- pKd (DLG3_1, Q92796; [2]): below the threshold
- pKd (DLG5_1, Q8TDM6; [2]): below the threshold
- pKd (DVL3, Q92997; [2]): below the threshold
- pKd (GRID2IP_2, A4D2P6; [2]): below the threshold
- pKd (GRIP1_5, Q9Y3R0; [2]): below the threshold
- pKd (GRIP2_4, Q9C0E4; [2]): below the threshold
- pKd (HTRA1, Q92743; [2]): below the threshold
- pKd (Inadl_4, Q8NI35; [2]): below the threshold
- pKd (Inadl_6, Q8NI35; [2]): below the threshold
- pKd (MAGI2_5, Q86UL8; [2]): below the threshold
- pKd (MAGI2_6, Q86UL8; [2]): below the threshold
- pKd (MAST1, Q9Y2H9; [2]): below the threshold
- pKd (PDLIM1, O00151; [2]): below the threshold
- pKd (PDZD7_3, Q9H5P4; [2]): below the threshold
- pKd (SCRIB_2, Q14160; [2]): below the threshold
- pKd (SHANK1, Q9Y566; [2]): below the threshold
- pKd (SIPA1L2, Q9P2F8; [2]): below the threshold
- pKd (SNTA1, Q13424; [2]): below the threshold
- pKd (SNTB1, Q13884; [2]): below the threshold
- pKd (SYNJ2BP, P57105; [2]): below the threshold
- pKd (TJP3_3, O95049; [2]): below the threshold

Binder: LPHPHSTTRV [NLGN2, Q8NFZ4]
- pKd (APBA2_2, Q99767; [1]): below the threshold
- pKd (APBA3_1, O96018; [1]): below the threshold
- pKd (CARD11, Q9BXL7; [1]): below the threshold
- pKd (DLG1_1, Q12959; [1]): 3.78
- pKd (DLG3_1, Q92796; [1]): below the threshold
- pKd (DLG5_1, Q8TDM6; [1]): below the threshold
- pKd (DVL3, Q92997; [1]): below the threshold
- pKd (GRID2IP_2, A4D2P6; [1]): 3.63
- pKd (GRIP1_5, Q9Y3R0; [1]): below the threshold
- pKd (GRIP2_4, Q9C0E4; [1]): below the threshold
- pKd (HTRA1, Q92743; [1]): 3.6
- pKd (Inadl_4, Q8NI35; [1]): below the threshold
- pKd (Inadl_6, Q8NI35; [1]): below the threshold
- pKd (MAGI2_5, Q86UL8; [1]): below the threshold
- pKd (MAGI2_6, Q86UL8; [1]): below the threshold
- pKd (MAST1, Q9Y2H9; [1]): 4.64
- pKd (PDLIM1, O00151; [1]): below the threshold
- pKd (PDZD7_3, Q9H5P4; [1]): 4.26
- pKd (SCRIB_2, Q14160; [1]): below the threshold
- pKd (SHANK1, Q9Y566; [1]): 4.81
- pKd (SIPA1L2, Q9P2F8; [1]): below the threshold
- pKd (SNTA1, Q13424; [1]): 4.18
- pKd (SNTB1, Q13884; [1]): 4.22
- pKd (SYNJ2BP, P57105; [1]): 3.84
- pKd (TJP3_3, O95049; [1]): below the threshold

Reference: paper PMC9482650, “Quantitative fragmentomics allow affinity mapping of interactomes” (Nature Communications, 2022)
